We go through five molecules from patent EP4725970A1 (Fortvita Biologics Inc., dated 2026).

Residue numbers refer to the chain shown, from its start. Where two headings read alike, the source gives them in different places.

Assay [1] has as its target T1, human CD3 (on Jurkat cells and human T cells) (human, UniProt P07766 23-207).
T1 construct: whole, on cells; the other chains of the complex on the cells are not described; also called CD3E
In words: flow cytometry, human CD8 T cells. A general note: In flow cytometry, cells or beads pass a laser one at a time.

Assay [2] has as its target T2, human GPRC5D (full-length, on cells) (human, UniProt Q9NZD1 1-345). Description: cell-based or functional assay.
Assay [3] concerns the target T2, human GPRC5D (full-length, on cells). Description: cell-based or functional assay. This is another data set of the same source.
For assay [4] the target is unchanged. In words: flow cytometry, GS-CHO-hGPRC5D cells.
The target in assay [5] is T1, human CD3 (on Jurkat cells and human T …). Description: flow cytometry, Jurkat cells.
Assay [6] deals with T2, human GPRC5D (full-length, on cells). In words: flow cytometry, GS-CHO-hGPRC5D cells. The source holds these as a separate data set.
Assay [7] concerns the target T1, human CD3 (on Jurkat cells and human T …). Description: flow cytometry, human CD4 T cells.
The target in the next assay is T3, human CD3E&G-His/Free (human, UniProt P07766 23-126; P09693 23-116).
T3 construct: Bought recombinant heterodimer; 'His/Free' as printed (one chain His-tagged); also called human CD3 E&G heterodimer
In words: BLI (Octet), 1:1 fit.

A further assay has as its target T4, cyno CD3E&G-His/Free (cynomolgus monkey, UniProt Q95LI5 22-117; Q95LI7 23-113).
T4 construct: Bought recombinant heterodimer; also called monkey CD3 E&G
T4 sequence (looked up) 1: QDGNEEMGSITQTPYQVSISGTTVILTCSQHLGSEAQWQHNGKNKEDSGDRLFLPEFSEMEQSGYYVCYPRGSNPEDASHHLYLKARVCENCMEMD
T4 sequence (looked up) 2: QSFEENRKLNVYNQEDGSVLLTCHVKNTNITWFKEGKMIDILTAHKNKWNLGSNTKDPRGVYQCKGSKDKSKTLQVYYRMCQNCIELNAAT
Description: BLI (Octet), 1:1 fit. (In general: Biolayer interferometry detects binding as a change in optical thickness at a sensor tip.)

In assay [8] the target is T5, human BCMA (full-length, on cells) (human, UniProt Q02223 1-184).
T5 sequence: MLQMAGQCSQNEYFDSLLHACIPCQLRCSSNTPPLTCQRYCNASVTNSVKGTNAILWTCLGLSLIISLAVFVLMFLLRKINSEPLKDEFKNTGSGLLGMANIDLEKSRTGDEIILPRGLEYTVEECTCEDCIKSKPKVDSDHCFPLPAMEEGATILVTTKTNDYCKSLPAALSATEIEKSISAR
Description: cell-based or functional assay.

Assay [9] addresses T5, human BCMA (full-length, on cells). Description: flow cytometry, GS-CHO-hBCMA cells.
Assay [10] has as its target T6, cynomolgus monkey GPRC5D (full-length, on cells) (cynomolgus monkey, UniProt A0A2K5W6I7 1-300).
T6 construct: also called cynoGPRC5D; GS-CHO-cynoGPRC5D
Description: flow cytometry, GS-CHO-cynoGPRC5D cells.

Assay [11] concerns the target T7, cynomolgus monkey BCMA (full-length, on cells) (cynomolgus monkey, UniProt A0A2K5UD97 1-183).
T7 construct: whole, on cells; also called cynoBCMA; GS-CHO-cynoBCMA
In words: flow cytometry, GS-CHO-cynoBCMA cells.

The target in assay [12] is T5, human BCMA (full-length, on cells). Description: cell-based or functional assay. The source holds these as a separate data set.
For assay [13] the target is unchanged. Description: flow cytometry, GS-CHO-hBCMA cells. The source holds these as a separate data set.
For a further assay, the target named is T8, Cyno BCMA-His (cynomolgus monkey, UniProt A0A2K5UD97 1-53).
T8 construct: also called Cyno BCMA (ACRO BCA-C52H7); monkey BCMA
Description: BLI (Octet), 1:1 fit.

Assay [14] deals with T2, human GPRC5D (full-length, on cells). Description: cell-based or functional assay. The source holds these as a separate data set.
The target in assay [15] is T5, human BCMA (full-length, on cells). In words: cell-based or functional assay. The source holds these as a separate data set.

T2 sequence (Q9NZD1 whole entry): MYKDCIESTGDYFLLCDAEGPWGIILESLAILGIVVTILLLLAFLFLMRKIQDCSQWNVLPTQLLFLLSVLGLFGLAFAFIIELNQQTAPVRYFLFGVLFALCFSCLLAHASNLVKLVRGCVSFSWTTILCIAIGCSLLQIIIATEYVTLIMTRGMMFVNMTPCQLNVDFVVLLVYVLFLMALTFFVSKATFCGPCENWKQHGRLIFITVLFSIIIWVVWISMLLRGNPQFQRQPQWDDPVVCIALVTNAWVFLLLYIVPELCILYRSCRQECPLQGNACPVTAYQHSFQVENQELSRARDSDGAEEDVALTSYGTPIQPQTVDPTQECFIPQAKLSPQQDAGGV
T8 sequence (A0A2K5UD97 entry or part of it): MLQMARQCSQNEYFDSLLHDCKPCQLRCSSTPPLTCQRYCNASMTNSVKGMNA
T1 sequence (P07766 23-207): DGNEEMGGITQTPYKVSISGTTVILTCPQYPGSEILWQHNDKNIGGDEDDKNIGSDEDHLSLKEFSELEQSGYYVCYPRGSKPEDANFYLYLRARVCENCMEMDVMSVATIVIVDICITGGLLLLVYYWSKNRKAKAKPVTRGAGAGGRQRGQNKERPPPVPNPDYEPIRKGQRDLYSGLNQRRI
T3 sequence (P07766 23-126, chain 1 of 2): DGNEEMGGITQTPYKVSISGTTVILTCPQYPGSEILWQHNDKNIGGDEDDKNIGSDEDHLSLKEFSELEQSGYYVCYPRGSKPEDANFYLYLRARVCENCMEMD
T3 sequence (P09693 23-116, chain 2 of 2): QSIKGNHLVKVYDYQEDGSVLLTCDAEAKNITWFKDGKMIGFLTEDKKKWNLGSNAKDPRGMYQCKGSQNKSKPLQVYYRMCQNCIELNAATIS
T6 sequence (A0A2K5W6I7 entry or part of it limits assumed, form in doubt): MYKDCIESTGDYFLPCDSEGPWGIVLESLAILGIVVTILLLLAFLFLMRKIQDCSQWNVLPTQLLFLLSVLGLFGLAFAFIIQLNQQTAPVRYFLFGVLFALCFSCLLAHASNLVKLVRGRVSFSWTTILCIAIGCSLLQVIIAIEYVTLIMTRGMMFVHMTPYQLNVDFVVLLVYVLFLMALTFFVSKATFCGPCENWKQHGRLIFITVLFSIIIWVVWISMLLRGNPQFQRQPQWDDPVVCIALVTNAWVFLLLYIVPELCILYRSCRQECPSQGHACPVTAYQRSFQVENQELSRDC
T7 sequence (A0A2K5UD97 entry or part of it): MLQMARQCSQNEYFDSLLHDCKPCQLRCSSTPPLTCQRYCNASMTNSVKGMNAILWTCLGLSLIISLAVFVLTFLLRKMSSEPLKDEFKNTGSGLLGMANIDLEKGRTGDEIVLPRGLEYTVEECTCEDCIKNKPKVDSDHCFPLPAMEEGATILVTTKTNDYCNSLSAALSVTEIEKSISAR

B1: Roche-GPRC5D/CD3 (bispecific antibody)
light 1: DIVLTQSPALAVSPGQRATISCRASQSVSISGINLMNWYQQKPGQQPKLLIYHASILASGIPTRFSGSGSGTDFTLTIDPVQADDIATYYCQQTRESPLTFGSGTNLEIKRTVAAPSVFIFPPSDRKLKSGTASVVCLLNNFYPREAKVQWKVDNALQSGNSQESVTEQDSKDSTYSLSSTLTLSKADYEKHKVYACEVTHQGLSSPVTKSFNRGEC
light 2: EVQLLESGGGLVQPGGSLRLSCAASGFTFSTYAMNWVRQAPGKGLEWVSRIRSKYNNYATYYADSVKGRFTISRDDSKNTLYLQMNSLRAEDTAVYYCVRHGNFGNSYVSWFAYWGQGTLVTVSSASVAAPSVFIFPPSDEQLKSGTASVVCLLNNFYPREAKVQWKVDNALQSGNSQESVTEQDSKDSTYSLSSTLTLSKADYEKHKVYACEVTHQGLSSPVTKSFNRGEC
heavy 1: ELQLEQSGGGLVQPGGSLTLSCAASGFTFSKYAMAWVRQAPTKGLEWVASISTGGVNTYYRDSVKARFTISRDNAKNTQYLQMDSLRSEDTATYYCATHTGDYFDYWGQGVMVTVSSASTKGPSVFPLAPSSKSTSGGTAALGCLVEDYFPEPVTVSWNSGALTSGVHTFPAVLQSSGLYSLSSVVTVPSSSLGTQTYICNVNHKPSNTKVDEKVEPKSCDKTHTCPPCPAPEAAGGPSVFLFPPKPKDTLMISRTPEVTCVVVDVSHEDPEVKFNWYVDGVEVHNAKTKPREEQYNSTYRVVSVLTVLHQDWLNGKEYKCKVSNKALGAPIEKTISKAKGQPREPQVCTLPPSRDELTKNQVSLSCAVKGFYPSDIAVEWESNGQPENNYKTTPPVLDSDGSFFLVSKLTVDKSRWQQGNVFSCSVMHEALHNHYTQKSLSLSPGK
heavy 2: not shown
notes: GPRC5D/CD3 bispecific derived from WO 2019/154890 A1
One may read the EC50 as the concentration at which the effect is half-maximal. With B1, the half-maximal effective concentration (EC50) in assay [1] was 65.8 nM; in assay [4], 16 nM; in assay [5], 30.4 nM; in [6], 9.78 nM; in [7] it was 66.6 nM. In addition, the “EC50 of PBMC killing of H929 ko BCMA cells (LDH)” value in [2] stood at 0.00419 nM. The “EC50 of PBMC killing of H929 ko BCMA cells, donor1” value in assay [3] worked out at 0.00486 nM.

B2: F2 (24) (F2-SP34.24-SC38497) (trispecific antibody, human IgG1, kappa, lambda, L234A L235A)
heavy 1: not shown
light 1: DIVMTQSPDSLAVSLGERATINCRASESVDSYGITFMNWYQQKPGQPPKLLIYAASNQGSGVPDRFSGSGSGTDFTLTISSLQAEDVAVYYCQQSKEVPWTFGQGTKLEIKRTVAAPSVFIFPPSDEQLKSGTASVVCLLNNFYPREAKVQWKVDNALQSGNSQESVTEQDSKDSTYSLSSTLTLSKADYEKHKVYACEVTHQGLSSPVTKSFNRGEC
heavy 2: EVQLVESGGGLVQPGGSLKLSCAASGFTFNTYAMNWVRQASGKGLEWVGRIRSKYNNYATYYADSVKDRFTISRDDSKSTLYLQMNSLKTEDTAVYYCARHGNFGQSYVSWFAYWGQGTTVTVSSASTKGPSVFPLAPSSKSTSGGTAALGCLVKDYFPEPVTVSWNSGALTSGVHTFPAVLQSSGLYSLSSVVTVPSSSLGTQTYICNVNHKPSNTKVDKKVEPKSCDKTHTCPPCPAPEAAGGPSVFLFPPKPKDTLMISRTPEVTCVVVDVSHEDPEVKFNWYVDGVEVHNAKTKPREEQYNSTYRVVSVLTVLHQDWLNGKEYKCKVSNKALPAPIEKTISKAKGQPREPQVYTLPPSRDELTKNQVSLSCAVKGFYPSDIAVEWESNGQPENNYKTTPPVLDSDGSFFLVSKLTVDKSRWQQGNVFSCSVMHEALHNHYTQKSLSLSPGAGGGGSGGGGSDIQMTQSPSSLSASVGDRVTITCRASQSISRYLNWYQQKPGKAPKLLIYAASSLQSGVPSRFSGSGSGTDFTLTISSLQPEDFATYYCQQKYFDITFGCGTKVEIKGGGGSGGGGSGGGGSQLQLQESGPGLVKPSETLSLTCTVSGGSIVSSSYYWTWIRQPPGKCLEWIGSISIAGSTYYNPSLKSRVTISVDTSKNQFSLKLSSVTAADTAVYYCARDRGDQILDVWSQGTMVTVSS
light 2: QAVVTQEPSLTVSPGGTVTLTCRSSTGAVTTSNYANWVQQKPGQAPRGLIGGTNKRAPGVPARFSGSLLGDKAALTLLGAQPEDEAEYYCALWYSNLWVFGQGTKLTVLGQPKAAPSVTLFPPSSEELQANKATLVCLISDFYPGAVTVAWKADSSPVKAGVETTTPSKQSNNKYAASSYLSLTPEQWKSHRSYSCQVTHEGSTVEKTVAPTECS
As usually defined, the Kd is the constant that tells how readily two partners part at equilibrium. One may read the koff as a measure of how fast the partners let go of each other. By kon is commonly meant the rate constant with which the complex forms. For the molecule B2, the EC50 in [1] amounted to 33.7 nM; in assay [9], 142 nM; in assay [4], 73.3 nM; in [10], 108 nM; in assay [5], 8.94 nM; in assay [7], 32.5 nM. In assay [11], the EC50 worked out at 83 nM. In addition, the Kd with human CD3E&G-His/Free is 17.2 nM; with cyno CD3E&G-His/Free, 12.5 nM. In addition, the koff with human CD3E&G-His/Free stood at 0.00765 s⁻¹; in the assay with cyno CD3E&G-His/Free, 0.00597 s⁻¹. The association rate constant (kon) with human CD3E&G-His/Free is 445000 M⁻¹ s⁻¹; with cyno CD3E&G-His/Free, 476000 M⁻¹ s⁻¹. In addition, the “EC50 of PBMC killing of H929 ko BCMA cells (LDH)” value in assay [2] is 0.004 nM. The “EC50 of PBMC killing of H929 ko GPRC5D cells (LDH)” value in assay [8] stood at 0.475 nM.

B3: B3b (87) (497(GLS)_sp34.87_5E12_triFab) (trispecific antibody, human IgG1, kappa, lambda, L234A L235A)
heavy 1: not shown
light 1: not shown
heavy 2: not shown
light 2: B2 light 1 with Q42D, Q128C, C218S
light 3: B2 light 2 with Q40K
notes: also called Exemplary antibody No. 4
Regarding B3, in assay [12], the “EC50 of PBMC killing of H929 ko GPRC5D cells, donor1” value worked out at 0.14 nM. Also, the “EC50 of PBMC killing of H929 ko BCMA cells, donor1” value in [3] was 0.879 nM. Also, in assay [6], the 50% effective concentration (EC50) was found to be 95.9 nM.

B4: B3 (87) (hz5E12_sp34.87_497_triFab) (trispecific antibody, human IgG1, kappa, lambda, L234A L235A)
heavy 1: not shown
light 1: B2 light 1
heavy 2: not shown
light 2: DIQMTQSPSSLSASVGDRVTITCRASQSISRYLNWYQDKPGKAPKLLIYAASSLQSGVPSRFSGSGSGTDFTLTISSLQPEDFATYYCQQKYFDITFGGGTKVEIKRTVAAPSVFIFPPSDECLKSGTASVVCLLNNFYPREAKVQWKVDNALQSGNSQESVTEQDSKDSTYSLSSTLTLSKADYEKHKVYACEVTHQGLSSPVTKSFNRGES
light 3: B2 light 2 with Q40K
notes: also called Exemplary antibody No. 2
Consider B4, for which the EC50 came out at 37.7 nM in assay [13] and 132 nM in [6]. In [12], the “EC50 of PBMC killing of H929 ko GPRC5D cells, donor1” value was found to be 0.346 nM. The Kd in the assay with human CD3E&G-His/Free came to 69.4 nM; in the assay with cyno CD3E&G-His/Free it was 61.1 nM; with Cyno BCMA-His it was 1.58 nM. In addition, the off-rate constant (koff) was determined as 0.0151 s⁻¹ with human CD3E&G-His/Free, 0.0131 s⁻¹ with cyno CD3E&G-His/Free and 0.00122 s⁻¹ with Cyno BCMA-His. Further, the on-rate (kon) turned out to be 218000 M⁻¹ s⁻¹ with human CD3E&G-His/Free, 214000 M⁻¹ s⁻¹ with cyno CD3E&G-His/Free and 773000 M⁻¹ s⁻¹ with Cyno BCMA-His. In addition, in assay [14], the “EC50 of PBMC killing of H929 ko BCMA cells (LDH)” value turned out to be 0.025 nM. Further, the “EC50 of PBMC killing of H929 ko BCMA cells, donor1” value in assay [3] was 0.0663 nM. For the same molecule, the “EC50 of PBMC killing of H929 ko GPRC5D cells (LDH)” value in assay [15] stood at 0.176 nM.

B5: B5 (87) (hz5E12_sp34.87_497_triFab) (trispecific antibody, human IgG1, kappa, lambda, L234A L235A)
heavy 1: not shown
light 1: B2 light 1
heavy 2: not shown
light 2: B2 light 2 with Q40K
light 3: B4 light 2
notes: also called Exemplary antibody No. 3
Regarding B5, in [13], the binding result is listed as “no binding”. Besides, in [14], the “EC50 of PBMC killing of H929 ko BCMA cells (LDH)” value was determined as 0.0105 nM. Further, the “EC50 of PBMC killing of H929 ko GPRC5D cells (LDH)” value in [15] came to 0.182 nM.
